Reference: the RNAGym collection of RNA variant scans (doi:10.1073/pnas.2313332121)

B1: TPR t1 (parent)
chain: GACCAAUCUGCCCUCAGAGCUCGAGAACAUCUUCGGAUGCAGAGGAGGCAGGCUUCGGUGGCGCGAUAGCGCCAACGUCCUCAACCUCCAAUGCAUCCCACCACAUGAUGAUGCCUGAAGAGCCUUGGUUUUUUG

Variants of: B1
Experiment: polymerase ribozyme fitness, log enrichment relative to wild type (log ratio); higher = more active; in vitro selection for triplet polymerase activity
Procedure, shortened: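 PCR was used to build mutant libraries for each subunit of a heterodimeric triplet polymerase ribozyme, which were then transcribed. A single in vitro selection round, in triplicate, used a frozen incubation at −7 °C and recovered extended constructs by gel excision, streptavidin beads and RT-PCR. Fitness is the logarithm of genotype enrichment relative to wild-type enrichment, averaged over replicates with inverse-variance weights. The logarithm is base 2, and after Illumina sequencing only genotypes with ≥10 input reads and ≥1 read per output were kept.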

Variant | polymerase ribozyme fitness (log ratio)
GACCAAUCUGCCCUGAGAGCUCGAGAACAUCUUCGGAUGCAGAGGAGCCAGGCUUCGGUGGCGCGAUAGCGCCAACGUCCUCAAUCUCCAAUGCAUCCCACCACAUGAUGAUGCCUGAAGAACCUUGGUUUUUUG [C15G G48C C85U G122A] | -3.3
GACCAAUCUGCCCUCAGAGCUGGAGAACAUCUUCGGAUGCAGAGGAGGCAGGCUUCGGUGGCGCGAUAGCGCCAACGUCCUCAACCUCCAAUGCGUCCCACCAUAUGAUGAUGCCUGAAGAGCCUUGGUUUUUUG [C22G A95G C104U] | -2.37
GACCAAUCUGCCCUCAGAGCUCGAGAACAUCUUCGGAUGCUGAGGAGGCAGGCUUCGGUGGCGCGAUAGCACCAACGUCCUCAACCUCCAAAGCAUCCCACCACAUGAUGAUGCCUGAAGAGCCUUCGUUUUUUG [A41U G71A U92A G127C] | -3.79
GACCCAUCUGCCCUCAGAGCUCGAGAACAUCUUCGGAUGCAGAGGAGGCAGGCUUGGGUGGCGCGAUAGCGCCAACGUACUCAACCUCCAAUGCAUCCCACCACAAGAUGAUGCCUGAAGAGCCUUGGUUUUUUG [A5C C56G C79A U106A] | -2.63
GACCAAUCUGCCCUCAGAGCUCGAGAAUAUCUUCGGAUGCAGAGGAGGCAGGCUUCGGUGGCGCGAUAGCGCCAACGUCCUCAACCUCCAAUGCAUCCCACCACAUGAUGAUGCCUGAAUAGCCUUGGUUUUUUG [C28U G120U] | -1.78
GACCAAUCUGCCCUCAGAGCUCGAGAACAUCUUCGGAUGCAGAGGAGGGAGGCUUCGGUGGCGCGAUAGCGCCAACGUCCUCAACCUCCAAUGCAUCCCACCUCAUGAUGAUGCCUGAAGAGCCUUGGUUUUUUG [C49G A103U] | -5.7
GACCAAUCUGCCGUCAGAGCUCGAGAACAUCUUCGGAUGCAGAGGAGGCAGGCUUCGGUGGCGCGAUAGCGCCUACGUCCUCAACCUCCAAUGCAUCCCACCACAUGAUGAUGCCUGAAGAGCCUUGGUUUUUUG [C13G A74U] | -2.54
GACCAAUCUGCCCUCAGAGCUCGAGAACAUCUUCGGAUGCAGAGGAGGAAGGCUUCGGUGGAGCGAUAGCUCCAACGUCCUCAACCUCCAAUGCAUCCCACCACAUGAUGAUGCCUAAAGAGCCUUGGUCUUUUG [C49A C62A G71U G117A U130C] | -1.49
GACCAAUCUGCCCUCAGAGCUCGAGAACAUCUUCGGAUGCAGAGGAAGUAGGCUUCGGUGGCCCGAUAGCGCCAACGUCCUCAACCUCCAAUGCAUCCCACCACAUGAUGAUGCCUGAAGAGCCUUGGUUUUUUG [G47A C49U G63C] | -1.35
GACCAAUCUGCCCUCAGAGCUCGAGAACAUCUUCGGAUGCAGAGGAGGCAGGCUUCGGUGGCGCGAUAGCGCCAACGUCCUCAACCUCCAAUGCAUCCCACCACAUGAUGCUACCUGAAGAGCCUUGGUUUUUUG [A111C G113A] | -3.44
GACCAAUCUGCUCUCAGAGCUCGAGAACAUCUUCGUAUGCAGAGGAGGCAGGCUUCGGUGGCGCGAUAGCGCCAACGUCCUCAACCUCCAAUGUAUCCCACCACAUGAUGGUGCCAGAAGAGCCUUGGUUUUUUG [C12U G36U C94U A111G U116A] | -2.07
GACCAAUCCGCCCUCAGAGCUCGAGAACAUCUUCGGAUGCAGAGCAGGCAGGCUUCGGUGGCGCGAUAGCGCCAACGUCCUCAACCUCCAAUGCAUCCCACCACAUGAUGAUGCCUGAAGAGCCUUGGUUGUUUG [U9C G45C U131G] | -1.16
GACCAAUCUGCCAUCAGAGCUCGUGAACAUCUUCGGAUGCAGAGGAGGCAGGCUUCGGUGGCCCGAUAGCGCCAACGUCCUCUCCCUCCAAUGCAUCCCACCACAUGAUGAUGCCUGAAUAACCAUGGUUUUUUG [C13A A24U G63C A83U A84C G120U G122A U125A] | -6.79
GACCAAUCUGCCCUCAGAGCUCGAGAACAUCUUCGCAUGCAGAGGAGGAAGGCUUCGGUGGCGCGAUAGCGCCAACGUUCUCAACCUCCAAUGCAUCCCAGCACAUGAUGAUGCCUGAAGAGCCUUGGUUUUUUG [G36C C49A C79U C101G] | -2.06
GACCAAUCUGCACUCAGAGCUCGAGAACAUCUUCGGAUGCAGAGGAGGCAGGCUUCGGUGGCGCGAUAGCGCCAACGUCCUCAACCUCCAGUGCAUCCCACCACAUGAUGAAGCCUGAAGAGCCUUCGUUUUUUG [C12A A91G U112A G127C] | -1.8
GACCAAUCUGCCCUCAGAGCUCGAGAACAUCUUCGGAUGCAGCGGAGGCAGGCUUCGGUGGCGCGAUAGCGUCAACGUCCUCAACCUCCAAUGCAUCCCACCUCAUGAUGAUGCCUGAAGAGCCAUGGUUUUUUG [A43C C72U A103U U125A] | -6.47
GACCAAUCGGCCCUCAGAGCUCGAGAACAUCUUCGGAUGCAGAGGAGGCAGGCUUCGGUGGCGCGAUAGCGCCAACGUCCUCACCCUCCAAUGCAUCACACCACAUGAUGAUGCCUGAAGAGACUUGGUUUUUUG [U9G A84C C98A C123A] | -4.03
GACCAAUCUGCCCUCAGAGCUCGAGAACAUCUUCGGAUGCAGAGGAGGCAGGCUUCGGUGGUGCGAUAGCGCCAACGUCCUCAACCUCCAAUGCAUCCCAUCACAUGAUGAUGCCUGAAGAGCCUUGGUUUUUUG [C62U C101U] | -0.317
GACCCAUCUGCCCUCCGAGCUCGAGAACAUCUUCGGAUGCAGACGAGGCAGGCUUCGGUGGCGCGAUAGCGCCAACGUCCUCAACCUCCAAUGCAUCCCACCACAUGAUGAUGCCUGAAGAGCCUUGGUUUUUUG [A5C A16C G44C] | -4.17
GACCUAACUGCCCUCAGAGCUCGAGAACAUCUUCGGAUGCAGAGGAGGCAGGCUUCGGUGGCGCGAUAGCGCCAACGUCCUCAACCUCCAGUGCAUCCCACCACAUGAUGAUGACUGAAGAGCCUUGGUUUUUUG [A5U U7A A91G C114A] | -1.75
GACCAAUCAGCCCUCAGAGCUCGAGAACAUGUUCGGAUGCAGAGGAGGCAGGCUUCGGUGGCGCGAUAGCGCCAACGUCCUCAACCUCCAAUGCAUCCCACCACAUGAUGAUGCCUGAAGAGCCUUGGUUUUUUG [U9A C31G] | -4.11

Variant | polymerase ribozyme fitness (log ratio)
GACCAAUCUGCCCUCAGAGCUCGAGAACAUCUUCGGAUGCAGAGGAGGCAGGCUUCGGUGGCGCGAUAGCGCCAAGGUCCUCAACCUCCAAUGCAUCCCACCACAUGAUGAUGUCUGAAGAGCCUUGGUUUUUUG [C76G C114U] | -2.74
GACCAAUCUGCCCUCAGAGCUCGAGAACUUCUUCGGAUGCAGAGGAGGCAGCCUUCGGUGGCGCGAUAGCGCGAACGUCCUCAACCUCCAAUGCAUCCCACCACAUGAUGAUGCCUGAAGAGCCUUGGUUUCUUU [A29U G52C C73G U132C G135U] | -3.19
GACCAAUCUGCCCUCAGAGCUCGAGAACAUCUUCGGAUGGAGAGGAGGCAGGCUUCGGUGGCGCGAUAGCGCCAACGUCCUCAACCUCCAAAGCAUCCCACCACAUGAAGAUGCCCGAAGAGCCUUGGUUUUUUG [C40G U92A U109A U116C] | -5.03
GACCAAUCUGCCCUCAGAGCUCGAGAACAUCUUCGGAUGCAGAGGAGGCAGGAUUCGGUGGCGCGAUAGCGCCAACGUCCUCAACCUCCAAUGCAUACCACCACAUGAUGAUGCCUGAAGAGCCUUGGUUUUUUG [C53A C97A] | -4.2
GACCAAUCUGCCCUCAGAGCGCGAGAACAUCUUCGGAUGCAGAGGAGGCAGGCUUCGGUGGCGCGAUAGCGGCAACGUCCUCAACCUCCAAUGCAUCCCACCACAUGAUGAUGCCUGAAGAGCCUUGGUUUUUUG [U21G C72G] | -1.39
GACCAAUCUGCCCUCAGAGCUCGAGAACAUCUUCGGAUGCAGAGGAGGCAGGCUUCGGUGGCGCGAUACCGCCAACAUCCUCAACCUCCAAUGCAUCUCACCACAUGAUGAUGCCUGAAGAGCCUCGGUCUUUUG [G69C G77A C98U U126C U130C] | -3.72
GACCAAUCUGCCCUCAGAGCUCGAGAACAUCUUCGGUUGCAGAGGAGGCAGGGUUCGGUGGCGCGAUAGCGCCAACGUCCUCAACCUCUAAUGCAUCCCACUACAUGAUGAUGCCUGAAGAGCCUUGGUUAUUUG [A37U C53G C89U C102U U131A] | -2.62
GACCAAUCUGCCCUCAGAGCUCGAGAACAUCUUCGGAUGCAGAGGAGGCAGGCUUCGGUGGCGCGAUAGCGCCAACGUCCUAAACCUCCACUGCAUCCCACCACAUGAUGAUGCCUGAAGAGCCUUGGUUUUUUG [C82A A91C] | -1.72
GACCAGUCUGCUCUCAGAGCUUGAGAACAUCUUCGGAUGCAGAGGAGGCGGGCUUAGGUGGCGCGAUAGCGCCAACGUCCUCAACCUCCAAUGCAUCCCACCACAUGAUGAUGCCUGAAGAGCCUUGGUUUUUUG [A6G C12U C22U A50G C56A] | -4.54
GACCAAUCUACCCUCAGAGCUCGAGAACAUCUUCGGAUGCAGAGGAGGCAGGCUUCGGUGGCGCGAUAGCGCCUACGUCCUCAACCUCCAAUGCAUCCCACCACAUGAUGAUGCCUGAAGAGCCUUGGUUUUUUG [G10A A74U] | -0.813
GACCAAUCUGCCCUCAGAGCUCGAGACCAUCUUCGGAUGCAGAGGAGGCAGGCUGCGGUGGCGCGAUAGCGCCAACGUCCUCAACCUCCAAUGCAUCCCACCACAUGAUGAUGCCUGAAGAGCCUUGGUUUUUUG [A27C U55G] | -2.72
GACCAAUCUGCCCUCAGAGCUCGAGAACAUCUUCGGAUGCAGAGGAGGCAGGCUUCGGUGACGCGAUAGCGCCAACGUCCUCAACCUGCAAUGCAUCCCACCACAUGAUAAUGCCUGAAGAGCCUUGGUUUUUUG [G61A C88G G110A] | -1.26
GACCAAUCUGCCCUCAGAGCUCGAGAACAUCUUUGGAUGCAGAGGAGGCAGGCUUCGGUGGCGCGAUAGCGCCAACGUCCACAACCUCCAAUGCAUCCCACCACAUGAUGAUGCCUGAAGAGCCUUGGUUUUUUG [C34U U81A] | -5.06
GACCAAUCUGCCCUCAGAGCUCGAGAACAUCUUCGGAUGCAGAGGAGGCAGGCUUCGGUGGCUCGAUAGCGCCAACGUCCUCAACCUCCAAUGCAUCCCACCACAUGAUGAUGCCUGAAUAGCCUAGGUUUUUUG [G63U G120U U126A] | -1.69
GACCAAUCUGCCCUCAGAGCUCGAGAACAUCUUCGGAUGCAGAGGAGGCAGGCUUCGGUGGCGCGAUAGCGUCAACGUCCUCAACCUCCAAUGCAUCCCACCACAUGAGGAUACCUGAAGAGCCUUGGUUUUUUG [C72U U109G G113A] | -5.96
GACCAAUCUGCCCUCAGAGCUCGAGAACAUCUUCGGAUGCAGAGGAGGCAGGCUUCGGUGGCGCGAUAGCGCCAACGUCCUCAAGCUCCAAUGCAUCCCACCACAUGAUGAUGCCUGAAGAACCUUGGUUUUUUG [C85G G122A] | -1.82
GACCAAUCUGCCCUCAGAGCUCGAGAACAUCUUCGGAUGCAGAGCUGGCAGGCUUCGGUGGCGCGAUAGCGGCAACGUCCUCAACCUCCAAUGCAUCCCACCACAUGAUGAUGCCUGAAGAGCCUUGGUUUUUUG [G45C A46U C72G] | -2.36
GACCAAUCUGCCCUCAGAGCUCGAGAACAUCUUCGGAUGCAGAGGAGGCAGGCUUCGGUGGCCCAAUAGCGCCAACGUCCUCAACCUCCAAUGCAUCCCACCACAUGAUGAUGCCUGAAGAGCCUUGGUUUUUUG [G63C G65A] | -5.84
GACCACUCUGCCCUCAGAGCUCGAGAACAUCUUCGGCUGCAGAGGAGGCAGGCUUCGGUGGCGCGAUAGCGCCAACGUCCUCAACCUCCAAUGCAUCCCACCACAUGAUGAUGCCUGAAGAGCCUUGGUUUUUUG [A6C A37C] | -0.884
GACCAAUCUGCUCUCAGAGCUCGAGAGGAUCUUCGGAUGCAGAGGAGGCAGGCUUCGGUGGCGCGAUAUCGCCAACGUCCUCAACCUCCAAUGCAUCCCACCACAUGAUGAUGCCUGAAGAGCCUUGGUUUUUUG [C12U A27G C28G G69U] | -2.22
GACCAAUCUGCCCUCAGAGCUCGAGAACAUCUUCGGAUGCAGAGGAGGCAGGCUUCGGUGGCGCGAUAGCGACAACGUCCUCAACCUCCAAUGAAUCCCACCACAUGAUGAUGCCUGAAGAGCCUUGGUUUUUUG [C72A C94A] | -0.415
